The nanobody polyreactivity screen of Harvey et al. (2022)

Assay: yeast display, Sf9 membrane polyspecificity reagent, FACS + sequencing; frameworks hold sequencing errors
Summary of the method: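 Genes from sorted yeast were amplified by colony PCR, read by MiSeq 2 × 250 sequencing and filtered on CDR length. These cells carried a synthetic nanobody library in Saccharomyces cerevisiae BJ5465 and were sorted by FACS into low and high (top ~1%) gates on anti-HA and streptavidin fluorescence. Polyreactivity is labelled according to the gate of origin.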

Row | Sequence | polyreactivity (PSR sort gate)
1 | QVQLVESGGGLVQAGGSLRLSCAASGSNFWLYAMGWYRQAPGKERELVAAIRSGDRTNYADSVKGRFTISRDNAKNTVYLQMNSLKPEDTAVYYCAAVAYLNWTPHYYWGQGTQVTVSS | low polyreactivity
2 | QVQLVESGGGIVQAGGSLRLSCAASGFTFHTYAMGWYRQAPGKERELVAAISYSGGNTYYADSVKGRFTISRDNAMNTVYLQMNSLKPEDTAVYYCAAQSYYRYYWGQGTQVTVSS | high polyreactivity
3 | QVQLVESGGGLVQAGGSLRLSCAASGRTFFTYAMGWYRQAPGKERELVASITSSGVSTYYADSVKGRFTISRDNAKNTVYLQINRLKPEDTAVYHCNTRYPYYWPIYGYWGQGTQVTVSS | high polyreactivity
4 | QVQLVESGGGLVQAGGSLRLSCAASGRIFGWYAMGWYRQAPGKERELVAAISSADSTNYADSVKGRFTIARDNAKNTVYLQMNSLKPEDTAVYYCNAEGLPGNVVYGYYYWGQGTQLTVSS | low polyreactivity
5 | QVQLVESGGGLVQAGGSLRLSCAASGSIFSVYAMGWYRQAPGKERELVAGITRGGSTYADSVKGRFTISRDNAKNTVYLQMNSLKPEDTAVSYCAADALIATPSWGKYNYWGQGTQVTVSS | high polyreactivity
6 | QGQLVESGGGLVQAGGSLRLSCAASGFTFTRNTMGWYRQAPGKERELVAAITRGGSTNYADSVKGRFTISRDNAKNTVYLQLNSLKPEDTAVYYCNKGRNVVLVRTADDYWGQGTQVTVSS | low polyreactivity
7 | QDQLVESGGGLVQAGGSLSLSCAASGRIFRGNAMGWYRQAPGKERELVASITWRGTSTYYADSVKGRFTISRDNAKNTVYLQMNSLKPEDTAVYYCAASLYSWGQGTEVTVSS | high polyreactivity
8 | QVQLVESGGGLVQAGGSLRLSCAASGSTFYRNAMGWYIQAPGKVRELVAAISQSGGRTYYADSVKGRFTISRDNAKNTVYLQMNSLKPEDTAVYYCATAFRKDRGFYPSRDYWGQGTQVTVSS | high polyreactivity
9 | QVQLVESGGGLVQAGGSLRLSCAASGLTFTLYTMGWYRQAPGKEREFVAVISGTGGRTYYADSVKGRFTISRDNAKNTVYLQMNSLKPEDTAVYYCATCYSFRYWGQGTQVTVSS | high polyreactivity
10 | QVQLVESGVGIVQAGGSHRLSCAASGRICVRNAMGWYRQAPGKERQLVAAISWSGGTNYADSVKGRFTISRDNAKNTVYLQMNSLKPEDTAVYYCAALSVWSYYTYYYWGQGTQVTVSS | high polyreactivity
11 | QVQLVESGGGLVQAGGSLRLSCAASGRTFRYNTMGWYRQAPGKERELVAAITWSGGRTYYADSVKGRFTISRDNAKNTVYLQMNSLNPEDTAVYYCNADVPYSRSIYGFYYWGQGTQVTVSS | high polyreactivity
12 | QVQLVESGAGLVQAGGSLRLSCAASGSTFYRYVMGWYRQAPGKERELVAAISGSGVRTYYADSVKGRFTISRDNAKNTVYLQMHSLKPEATAVYYCAASVRSRSQTYLRYDYWGQGTQVTVSS | high polyreactivity
13 | QVQLVESGGGLVQAGGSLRLICAASGFIFPDYGMGWYRQAPGKERELVAAISRNGVSTYYADSLKRRFTISRDNAKNTVYLQMISLIPEDTAVYYCAARYYRIRRVSKSVYYWGQCTQVTVSS | low polyreactivity
14 | QVQLVESGGGLVQAGGSLRLSCAASGRTFYRYAMGWYRQAPGKERELVAAISRSGTTYYADSVKGRFTISRDNAKNTVYLQMNSLKPEDTAVYFCAAKPAGRQRGGDYWGQGTQVTVSS | high polyreactivity
15 | QVQLVESGGGLVQAGGSLRLSCAASGSTFYTYAMGWYRQAPGKEMELVADITRGGSTYYADSVKGRFTISRDNAKNTVYLQMNSLKPEDTAVYYCAADYTWLSFFEFDYWGQGTQVTVSS | high polyreactivity
16 | QVQHVESAGALVQAGGSLRLSCAASRRTFYRYPMGWYRQAPGKERELVAAISSNGGSTYYADSVKGRFTISRDNGKNTVYLQMNSLKPEDTAVYYCYYYNSRLFDYWGQGTQVTVSS | high polyreactivity

Row | Sequence | polyreactivity (PSR sort gate)
17 | QVQLVESAGGLVQAGGSLSLSCAATGITFPYVMGWYRQAPGKQRELVAAISRTGTSTYYADSVKGRFTISRDNAKNTVYLQMNSLKPEDTAVYYCAARTQTQVYPAYGYWGQGTQVTVSS | high polyreactivity
18 | QVQLVESGGGLVQAGVSLRLSCAASGLTFKWNAMGWYRHAPGKEREFVAAITKRAGSTYYADSVKGRFTISRDNAKNTVYLQMNSLKPEDTAVYYCAADDGYFYARYDYWGHGTQVTVSS | low polyreactivity
19 | QVQLVESGGGLVQAGGSLRLSCAASGSTVYAYAMGWYRQAPGKERELVAAIDSGGSTYYADSVKGRFTISRDNAKNTVNLQMNSLKPEDTAVYYCAVRHRYTRAYWGRDYWGQGTQVTVSS | low polyreactivity
20 | QVQLVESGGGLVQAGGSLRLSCAASGSTFFFNAMGWYRQAPGKERELVAAITGSGGSTYYADSVKGRFTISRDNAKNTVYLQMNSLKPEDTAVYYCNASSPYDYDWGQGTQVTVSS | low polyreactivity
21 | QVQLVESGGGLVQAGGSLRLSCAASGLIFRHYVMGWYRQAPGKERELVAAITSRGGTTYYADSVKGRFTISRDNAKNTVYLQMNSLKPEDTAVYYCNVVQNSRHGYTSYYWGQGTQVTVSS | high polyreactivity
22 | QVQLVESGGGLVQAGGSLRLSCAASGSIFAHYTMGSYRQAPGKEREFVAAITKSGGRTYYADSVKGRFTISRDNAKNTVYLQMNSLKPEDTAVYYCARRRTIPYTLVDYDSWGQGTQVTVSS | low polyreactivity
23 | QVQLVESGGGLVQAGGSHRLSCAPSGFTLADYTMAWYRPAPGKERELVAAITSGASTYYADSVKGRFTISRDNAKNTVYLQMNSLKPEDTAGYYCAARNDYYNTFSGYDYWGQGTQVTVSS | low polyreactivity
24 | QVQLVESGGGLVQAGGSLRLSCAASGSIFFYYAMGWYRQAPGKERELVAAITSSGDSTYYADSVKGRFTISRDNAKNTVYLQMNSLKPEDTAVYYCAALYIGYTGYYYWGQGTQVSVSS | low polyreactivity
25 | QVQLVESVGGLVQEGGSLRLICAASGSIFYTYAMGWYRQAPGKERELVAAIRSTGRTNYADSVKGRFTISRDNAKNTVYLHMNSLKPEDTGVYYCAAGTNYGKLRIRFDYWGQGTQVTVSS | low polyreactivity
26 | QVQLVESGRGLVQAGGSLRLSCDASGSILRENAMGWSRQAPGKERELVAVITRGGNTYYADSVKGRFTISRDNAKYTFYLQMNSMKREDTAVYYCAAKRRERYGQTYGYWGQGTQVTVSS | high polyreactivity
27 | QVQIVESGGVLVQAGGSLRLSCAASGRIFGSYAMGWYRQAPGKERELVAGIRSVGSTNYADSVKGRFTISRDNEKNTVYLQMNSLKPEDTAVYYCAACLWHPTFGYWGQGTQVTVSS | low polyreactivity
28 | QVQLVESGGGLVQAGGSLRLSCAASGSTFVYNAMGWYRQAPGKERELVAAISSRGGGTYYADSVKGRFTISRDNAKNSVYLQMYSLKPEDTAVYYCNTLPYTHGSNDYWGQGTQVTVSS | high polyreactivity
29 | QVQLVESVGGLVQAGGSLRLSCAASGSTFIQYAMGRYRHAPGKERELVASNSRSAGSTYYADSVKGRFTISRDNAKNTVYLQMNSLKPEDTAVYYCAADSYYLGYYLGSYSWDYGYWGQGTQVTVSS | high polyreactivity
30 | QGQLVESGGGLVQAGGSLRLSCAASGGIFIFYAMGWYRQAPGKERELVAAISNVSSTNYADSVKGRFTISRDNAKNTVYLQMNSLKPEDTAVYYCNAVGVPSEYYSWGQGTQVTVSS | low polyreactivity
31 | QVQLVESGGGIVQAGGSLRLSCAASGSTYYGYTMGWYRQAPGKERELVAVITSGGSTYYADSVKGRFTISRDNAKNTVYLQMNILKPEDRAVYYCAKRYGYPAYGRPWRIGRTYDYWGQGTQVTVSS | low polyreactivity
32 | QVQLVESGGGIVQAGGSLRLSCAASGRILVSNTMGWYRQAPGKERELVAGIRRGGSTDYADSVKGRFTISRDNAKNTVYLQMNSLKPEDTAVYYCNARYSNGYTKLGYWGQGTQVTVSS | low polyreactivity
